Measurements from US20170137520A1 (Merck Sharp & Dohme, published 2017).
Positions count from the first letter of the chain named. Names and notes keep the numbering of the source.

T1: human CTLA-4 expressed on cell surface (hCTLA4-overexpressing CHO-K1 cells) (human, UniProt P16410 36-223)
T1 construct: The construct expressed in the cells is not described further; also called huCTLA-4+ CHO-K cells; CTLA-4+ CHO-K1 cells
T1 sequence: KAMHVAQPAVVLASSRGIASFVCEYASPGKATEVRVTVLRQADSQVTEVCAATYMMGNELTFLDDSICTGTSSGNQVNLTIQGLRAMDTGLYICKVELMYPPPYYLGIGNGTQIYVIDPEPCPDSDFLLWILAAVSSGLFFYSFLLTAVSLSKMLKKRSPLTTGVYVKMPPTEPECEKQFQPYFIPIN

T2: Cynomolgus CTLA-4-Fc (cynomolgus monkey, UniProt G7PL88 37-162)
T2 construct: also called cynomolgus monkey CTLA4-hFc; not shown: human Fc (hFc)
T2 sequence: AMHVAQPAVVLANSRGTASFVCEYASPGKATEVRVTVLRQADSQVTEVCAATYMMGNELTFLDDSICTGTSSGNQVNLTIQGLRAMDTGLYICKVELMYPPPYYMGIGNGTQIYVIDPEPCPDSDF

T3: Human CTLA-4-Fc (human, UniProt P16410 37-162, limits assumed)
T3 construct: also called human CTLA4-hFc; CTLA-4-Fc fusion molecule from human; not shown: human Fc (hFc)
T3 sequence: T2 sequence with N13S, T17I, M105L

B1: F023700906 Nanobody, CTLA4 binder 11F01 (L11V,A14P,Q45R,A74S,K83R,V89L,M96P,Q108L)-FLAG3-HIS6 (VHH)
VHH: EVQLVESGGGVVQPGGSLRLSCAASGGTFSFYGMGWFRQAPGKEREFVADIRTSAGRTYYADSVKGRFTISRDNSKNTVYLQMNSLRPEDTALYYCAAEPSGISGWDYWGQGTLVTVSS
notes: also called F02370906; Nb F023700906
B2: F023701054 [11F01 (L11V,A14P,Q45R,N73T,A74S,K83R,V89L,M96P,Q108L)-FLAG3-HIS6] (VHH, name in Kabat numbering)
VHH: B1 VHH with N74T
notes: N73 is Kabat numbering
B3: F023701061 [11F01 (L11V,A14P,Q45R,N73Y,A74S,K83R,V89L,M96P,Q108L)-FLAG3-HIS6] (VHH, name in Kabat numbering)
VHH: B1 VHH with N74Y
notes: N73 is Kabat numbering
B4: F023701051 [11F01 (L11V,A14P,Q45R,N73Q,A74S,K83R,V89L,M96P,Q108L)-FLAG3-HIS6] (VHH, name in Kabat numbering)
VHH: B1 VHH with N74Q
notes: N73 is Kabat numbering; also called F02371051

Key:
[1] = molecular target: T1, human CTLA-4 expressed on cell surface …; experiment: competition flow cytometry (cFACS) on CHO-K1 hCTLA4 cells against a fixed concentration (EC30) of hCD86-hFc; MedianFI (PE)
[2] = molecular target: T1, human CTLA-4 expressed on cell surface …; experiment: competition flow cytometry (cFACS) on CHO-K1 hCTLA4 cells against a fixed concentration (EC30) of hCD86-hFc; bound ligand detected via its human IgG Fc; MedianFI (PE)
Text: (§1) F023700906, a building block of F023700925, as well as F023701051, F023701054 and F023701061 blocked binding of human CTLA-4 to its ligands CD80 and CD86. Flow cytometry analysis of discovery batches of N73X variants (filled squares, filled triangles, filled triangles upside-down) of Nb F023700906 (filled circles) with fixed concentrations (EC30) of (A) hCD80-hFc or (B) hCD86-hFc on hCTLA4-overexpressing CHO-K1 cells. The ligands were detected via the human IgG Fc fusion protein. The flow cytometry data generated in this experiment are in FIG. 10 (A-B).

[3] = molecular target: T1, human CTLA-4 expressed on cell surface …; experiment: competition flow cytometry (cFACS) on CHO-K1 hCTLA4 cells against a fixed concentration (EC30) of hCD80-hFc; MedianFI (PE)
[4] = molecular target: T2, Cynomolgus CTLA-4-Fc; experiment: kinetic binding analysis on CTLA4-hFc; method not stated
Protocol: (§2) On-rate, off-rate and affinity were determined using human and cynomolgus monkey CTLA4-hFc (Table below).

[5] = molecular target: T3, Human CTLA-4-Fc; experiment: as above
Protocol: as §2

[6] = molecular target: T1, human CTLA-4 expressed on cell surface …; experiment: competition flow cytometry (cFACS) on CHO-K1 hCTLA4 cells against a fixed concentration (EC30) of hCD80-hFc; bound ligand detected via its human IgG Fc; MedianFI (PE)
Text: as §1

Binder	IC50 (read off the curve) [1] [nM]	IC50 (read off the curve) [2] [nM]	IC50 (read off the curve) [3] [nM]	Kd [4] [nM]	koff [4] [s⁻¹]	kon [4] [M⁻¹ s⁻¹]	Kd [5] [nM]	koff [5] [s⁻¹]	kon [5] [M⁻¹ s⁻¹]	IC50 (read off the curve) [6] [nM]
B1	~2	~2	~10	1.2	0.0057	4.7e+06	1.2	0.0059	4.8e+06	~10
B2	~2	~2	~10	–	–	–	–	–	–	~10
B3	~2	~2	~10	–	–	–	–	–	–	~10
B4	~2	~2	~10	–	–	–	–	–	–	~10
